The values that follow come from patent US5574136.

The target in the assay is human G-CSF receptor, class 2 (plasmid pHQ2), form lacking the transmembrane domain (human). The assay can be described thus: saturation binding of murine 125I-G-CSF to COS cells transfected with pHQ2, Scatchard plot.

On to “mouse recombinant G-CSF (granulocyte colony-stimulating factor) (from UniProt P09920) (ligand)”, for which the dissociation constant (Kd) – broadly, the constant that tells how readily two partners part at equilibrium – turned out to be 440 pM and the binding sites /cell was 6000 /cell.
